Assay [1] addresses T1, integrin alphaVbeta1 protein (R&D systems) (human, UniProt P06756 31-992; P05556 21-728).
T1 construct: Bought recombinant heterodimer coated on the ELISA plate; also called αVβ1
Nature of the assay: ELISA, integrin coated at 5 µg/ml, FLAG-Ang2 at 10 µg/ml, anti-FLAG-HRP. (In an ELISA, binding on a coated surface is turned into a signal by an enzyme label.)

In assay [2] the target is T2, integrin alpha5beta1 protein (R&D systems) (human, UniProt P08648 42-995; P05556 21-728, limits assumed).
T2 construct: Bought recombinant heterodimer coated on the ELISA plate; also called α5β1
T2 sequence (P08648 42-995 limits assumed, chain 1 of 2): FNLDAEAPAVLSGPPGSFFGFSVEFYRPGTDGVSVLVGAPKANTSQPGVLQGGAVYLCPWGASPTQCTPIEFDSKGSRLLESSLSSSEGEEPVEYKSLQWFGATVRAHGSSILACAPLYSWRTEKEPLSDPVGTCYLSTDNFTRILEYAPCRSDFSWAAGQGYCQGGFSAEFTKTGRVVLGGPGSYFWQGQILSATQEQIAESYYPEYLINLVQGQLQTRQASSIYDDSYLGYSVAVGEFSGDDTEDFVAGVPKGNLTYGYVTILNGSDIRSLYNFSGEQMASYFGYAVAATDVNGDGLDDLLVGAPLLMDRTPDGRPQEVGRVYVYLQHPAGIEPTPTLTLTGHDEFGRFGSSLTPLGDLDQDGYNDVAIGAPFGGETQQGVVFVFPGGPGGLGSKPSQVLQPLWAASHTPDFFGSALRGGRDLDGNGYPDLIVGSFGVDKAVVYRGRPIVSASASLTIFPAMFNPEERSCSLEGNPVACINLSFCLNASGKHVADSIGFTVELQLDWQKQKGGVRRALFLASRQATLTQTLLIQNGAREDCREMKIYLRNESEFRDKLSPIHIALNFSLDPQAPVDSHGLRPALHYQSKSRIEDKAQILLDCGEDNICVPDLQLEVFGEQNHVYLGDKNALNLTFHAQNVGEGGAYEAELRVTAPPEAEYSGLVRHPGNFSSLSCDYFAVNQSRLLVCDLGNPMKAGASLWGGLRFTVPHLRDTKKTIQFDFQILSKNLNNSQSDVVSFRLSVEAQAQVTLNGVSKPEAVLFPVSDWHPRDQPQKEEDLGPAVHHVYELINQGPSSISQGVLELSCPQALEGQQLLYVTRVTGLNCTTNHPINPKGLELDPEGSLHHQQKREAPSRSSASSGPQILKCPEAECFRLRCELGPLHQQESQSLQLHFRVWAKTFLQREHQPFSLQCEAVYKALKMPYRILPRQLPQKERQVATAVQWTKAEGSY
T2 sequence (P05556 21-728 limits assumed, chain 2 of 2): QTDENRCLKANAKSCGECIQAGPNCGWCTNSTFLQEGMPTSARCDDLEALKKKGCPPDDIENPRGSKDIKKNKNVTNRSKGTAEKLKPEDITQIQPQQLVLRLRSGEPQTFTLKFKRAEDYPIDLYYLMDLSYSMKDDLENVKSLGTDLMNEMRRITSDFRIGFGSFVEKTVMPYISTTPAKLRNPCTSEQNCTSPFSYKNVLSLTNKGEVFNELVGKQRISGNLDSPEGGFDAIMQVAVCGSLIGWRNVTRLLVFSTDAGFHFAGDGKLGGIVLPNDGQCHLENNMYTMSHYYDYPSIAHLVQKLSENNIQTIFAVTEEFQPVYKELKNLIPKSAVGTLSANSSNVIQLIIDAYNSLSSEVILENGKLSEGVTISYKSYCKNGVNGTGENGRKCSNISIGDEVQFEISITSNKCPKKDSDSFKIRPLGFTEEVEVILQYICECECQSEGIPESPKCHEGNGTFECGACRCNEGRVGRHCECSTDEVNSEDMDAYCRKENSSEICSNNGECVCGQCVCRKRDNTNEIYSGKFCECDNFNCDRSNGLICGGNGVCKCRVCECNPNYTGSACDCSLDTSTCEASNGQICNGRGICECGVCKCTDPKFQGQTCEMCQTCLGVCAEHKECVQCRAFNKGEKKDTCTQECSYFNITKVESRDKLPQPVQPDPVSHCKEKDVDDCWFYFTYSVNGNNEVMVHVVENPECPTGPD
Described as above.

For assay [3], the target named is T3, integrin alphaVbeta3 protein (R&D systems) (human, UniProt P06756 31-992; P05106 27-718).
T3 construct: Bought recombinant heterodimer coated on the ELISA plate; also called αVβ3; integrin (αVβ3)
T3 sequence (P06756 31-992 limits assumed, chain 1 of 2): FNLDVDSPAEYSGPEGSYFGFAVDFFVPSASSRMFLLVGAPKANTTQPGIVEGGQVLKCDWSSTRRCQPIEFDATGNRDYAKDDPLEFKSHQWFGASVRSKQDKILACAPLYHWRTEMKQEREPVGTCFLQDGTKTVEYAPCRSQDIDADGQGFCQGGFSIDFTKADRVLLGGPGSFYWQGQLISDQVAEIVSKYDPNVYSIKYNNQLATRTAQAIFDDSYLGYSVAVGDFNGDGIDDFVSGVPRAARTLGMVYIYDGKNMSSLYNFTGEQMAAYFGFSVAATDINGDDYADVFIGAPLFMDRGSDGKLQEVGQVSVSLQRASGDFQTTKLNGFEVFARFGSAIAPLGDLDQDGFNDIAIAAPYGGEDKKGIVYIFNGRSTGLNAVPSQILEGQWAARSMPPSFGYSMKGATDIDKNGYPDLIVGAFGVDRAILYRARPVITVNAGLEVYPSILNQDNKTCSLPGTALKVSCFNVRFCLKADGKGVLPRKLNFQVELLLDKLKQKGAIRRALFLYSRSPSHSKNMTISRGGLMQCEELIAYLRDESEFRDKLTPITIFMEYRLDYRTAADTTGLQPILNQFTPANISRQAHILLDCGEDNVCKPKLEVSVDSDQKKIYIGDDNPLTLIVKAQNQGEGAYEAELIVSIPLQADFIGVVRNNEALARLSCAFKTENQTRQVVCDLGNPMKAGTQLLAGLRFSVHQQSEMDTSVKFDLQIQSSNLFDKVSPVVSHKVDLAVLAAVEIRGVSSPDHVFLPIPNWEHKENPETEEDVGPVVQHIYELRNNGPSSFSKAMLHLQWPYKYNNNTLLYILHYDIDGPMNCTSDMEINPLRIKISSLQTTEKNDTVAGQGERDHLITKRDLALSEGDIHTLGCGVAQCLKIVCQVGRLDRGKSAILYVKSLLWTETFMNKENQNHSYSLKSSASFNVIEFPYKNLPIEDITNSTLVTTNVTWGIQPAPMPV
T3 sequence (P05106 27-718 limits assumed, chain 2 of 2): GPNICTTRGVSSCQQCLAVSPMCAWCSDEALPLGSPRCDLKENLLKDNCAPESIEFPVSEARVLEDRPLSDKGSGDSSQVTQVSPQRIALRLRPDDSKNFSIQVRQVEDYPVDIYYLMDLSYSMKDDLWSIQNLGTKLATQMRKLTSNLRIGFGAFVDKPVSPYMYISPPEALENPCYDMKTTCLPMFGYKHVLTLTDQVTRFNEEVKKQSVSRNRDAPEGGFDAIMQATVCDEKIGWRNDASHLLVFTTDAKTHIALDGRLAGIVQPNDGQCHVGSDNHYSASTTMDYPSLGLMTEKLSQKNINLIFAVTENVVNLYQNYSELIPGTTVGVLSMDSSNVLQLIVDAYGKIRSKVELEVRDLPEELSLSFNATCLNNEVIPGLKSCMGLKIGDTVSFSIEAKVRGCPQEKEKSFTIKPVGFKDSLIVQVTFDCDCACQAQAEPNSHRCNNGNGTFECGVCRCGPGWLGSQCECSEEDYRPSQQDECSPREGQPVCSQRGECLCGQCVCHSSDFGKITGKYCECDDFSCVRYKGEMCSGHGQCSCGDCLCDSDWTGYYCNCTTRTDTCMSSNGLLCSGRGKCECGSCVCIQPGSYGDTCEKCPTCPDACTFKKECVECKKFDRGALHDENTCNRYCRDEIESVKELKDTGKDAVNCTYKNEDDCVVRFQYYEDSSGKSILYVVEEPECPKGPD
The description is as above.

The target in assay [4] is T4, Tie2 proteins (Q02763, R&D systems) (UniProt Q02763 23-745, limits assumed).
T4 construct: Bought protein coated on ELISA plates
T4 sequence (Q02763 23-745 limits assumed, one chain of several): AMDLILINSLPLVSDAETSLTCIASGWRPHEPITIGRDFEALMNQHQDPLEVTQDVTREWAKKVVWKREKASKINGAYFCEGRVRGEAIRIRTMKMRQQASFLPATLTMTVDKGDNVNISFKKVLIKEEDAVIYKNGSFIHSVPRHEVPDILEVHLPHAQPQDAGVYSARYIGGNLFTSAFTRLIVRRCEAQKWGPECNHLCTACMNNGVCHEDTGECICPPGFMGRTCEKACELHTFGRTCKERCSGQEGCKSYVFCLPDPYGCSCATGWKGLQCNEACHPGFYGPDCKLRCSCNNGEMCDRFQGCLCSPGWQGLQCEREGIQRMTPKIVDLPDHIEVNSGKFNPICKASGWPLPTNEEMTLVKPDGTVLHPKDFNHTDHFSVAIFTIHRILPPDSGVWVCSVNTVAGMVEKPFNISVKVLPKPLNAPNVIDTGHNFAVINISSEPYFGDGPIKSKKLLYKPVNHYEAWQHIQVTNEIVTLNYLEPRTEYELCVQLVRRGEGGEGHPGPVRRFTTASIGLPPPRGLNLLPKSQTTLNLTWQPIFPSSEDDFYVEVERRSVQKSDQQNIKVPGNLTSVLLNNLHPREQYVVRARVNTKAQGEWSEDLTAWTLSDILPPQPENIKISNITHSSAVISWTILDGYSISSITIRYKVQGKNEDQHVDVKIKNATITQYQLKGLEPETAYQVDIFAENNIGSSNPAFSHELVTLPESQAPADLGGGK
Nature of the assay: ELISA, Tie2 coated, Ang2 proteins at 5 µg/ml.

The target in assay [5] is integrin on U87MG cells. Nature of the assay: cell-based or functional assay.
Assay [6] deals with T3, integrin alphaVbeta3 protein (R&D …). Nature of the assay: ELISA, integrin αVβ3 coated, Ang2 proteins at 5 µg/ml.

Numbering of substitutions follows the chain as printed. Names and notes keep the numbering of the source.

The values below come from patent US20160101154A1 (SAMSUNG ELECTRONICS, published 2016).

T1 sequence (P06756 31-992 limits assumed, chain 1 of 2): as the sequence (P06756 31-992 limits assumed, chain 1 of 2) above
T1 sequence (P05556 21-728 limits assumed, chain 2 of 2): as the sequence (P05556 21-728 limits assumed, chain 2 of 2) above

B1: Ang2 protein having FLAG sequences tagged at its N-terminal (FLAG-Ang2), wild type (ligand)
chain: DYKDDDDKYNNFRKSMDSIGKKQYQVQHGSCSYTFLLPEMDNCRSSSSPYVSNAVQRDAPLEYDDSVQRLQVLENIMENNTQWLMKLENYIQDNMKKEMVEIQQNAVQNQTAVMIEIGTNLLNQTAEQTRKLTDVEAQVLNQTTRLELQLLEHSLSTNKLEKQILDQTSEINKLQDKNSFLEKKVLAMEDKHIIQLQSIKEEKDQLQVLVSKQNSIIEELEKKIVTATVNNSVLQKQQHDLMETVNNLLTMMSTSNSAKDPTVAKEEQISFRDCAEVFKSGHTTNGIYTLTFPNSTEEIKAYCDMEAGGGGWTIIQRREDGSVDFQRTWKEYKVGFGNPSGEYWLGNEFVSQLTNQQRYVLKIHLKDWEGNEAYSLYEHFYLSSEELNYRIHLKGLTGTAGKISSISQPGNDFSTKDGDNDKCICKCSQMLTGGWWFDACGPSNLNGMYYPQRQNTNKFNGIKWYYWKGSGYSLKATTMMIRPADF
notes: it may include a signal peptide that is absent from the protein; also called FLAG-tagged Ang2; wild-type Ang2 protein
Take B1: the binding result in assay [1], in assay [2], in assay [3] and in assay [4] was “binds” in each case.

B2: FLAG-Ang2 protein modified form (Q362A) (ligand)
chain: B1 chain with Q352A
notes: also called Q362A Ang2 protein; Q362A modified form
B2: in assay [5], the invasion of U87MG cells through matrigel-coated transwell toward 5 µg/ml Ang2 protein, 48 hours (fraction of wild type Ang2) turned out to be 0.5. For the same molecule, the binding result in assay [4] is listed as “binds”. In addition, the “binding level relative to the wild type Ang2” value in assay [6] was not above 50%.
In the case of HTTNGIYTLTFPNST [Ang2 derived peptide of SEQ ID No. 3], the decrease in Ang2 dependent cell adhesion of U87MG cells to Ang2-coated plates, peptide at 100 µg/ml in assay [5] was more than 50%.
With LNYRIHLKGLTGTAG [Ang2 derived peptide of SEQ ID No. 24], the decrease in Ang2 dependent cell adhesion of U87MG cells to Ang2-coated plates, peptide at 100 µg/ml in assay [5] is more than 50%.
In the case of IYTLTFPNSTEEIKA [Ang2 derived peptide of SEQ ID No. 4], in assay [5], the decrease in Ang2 dependent cell adhesion of U87MG cells to Ang2-coated plates, peptide at 100 µg/ml was more than 50%.
On the same count and under the same terms, for EYWLGNEFVSQLTNQ [Ang2 derived peptide of SEQ ID No. 15 (Peptide 15)] the value was more than 50%.
